The text below walks through data of US10857209B2, “Lysosomal acid lipase and PPAR gamma ligands as immune therapies for cancer treatment” (Indiana University Research and Technology Corporation, priority 2016, dated 2020).

In assay [1] the test system is Ly6G+CD11b+ cells. Put plainly: Mitochondrial membrane potential (JC-1) in Ly6G+CD11b+ cells by flow cytometry. In kind it is cell-based, mouse. To be noted: lal−/− Ly6G+CD11b+ cells; 20 μmol/L, 48 hours; vs ethanol. On the procedure: (§1) The reactive oxygen species (ROS) level and mitochondrial membrane potential in MDSCs was measured by flow cytometry. Briefly, bone marrow cells were first treated with or without 20 μmol/L 9-HODE or ethanol for 2 days. For ROS level detection, cells were harvested, washed, and stained with 2′,7′-dichlorofluorescein diacetate (2 μmol/L, Invitrogen), allophycocyanin cy7-conjugated anti-Ly6G Ab, and phycoerythrin cy7-conjugated anti-CD 11b Ab (eBioscience) at 37° C. for 15 minutes. After PBS wash, the ROS level in Ly6G^+CD11b^+ cells was analyzed using a LSRII machine (BD Biosciences).
For mitochondrial membrane potential measurement, cells were stained with the fluorescent dye JC-1 (2 μmol/L, Molecular Probes, Eugene, Oreg., USA), allophycocyanin cy7-conjugated anti-Ly6G antibody, and phycoerythrin cy7-conjugated anti-CD 11b antibody (eBioscience) at 37° C. for 15 minutes, and then analyzed for phycoerythrin (JC-1 red) and fluorescein isothiocyanate (JC-1 green) fluorescent cells in Ly6G^+CD11b^+ cells by flow cytometry. Cells treated with 50 μmol/L carbonyl cyanide 3-chlorophenylhydrazone for 5 minutes were served as a fluorescein isothiocyanate-positive control.
(In general: In flow cytometry, cells or beads pass a laser one at a time.)

For assay [2], the system named is Ly6G+CD11b+ cells. Put plainly: ROS level in Ly6G+CD11b+ cells by flow cytometry. To be noted: lal−/− Ly6G+CD11b+ cells; 20 μmol/L, 48 hours. In kind it is cell-based, mouse. On the procedure: as §1
Assay [3] deals with CD11b+Ly6G+, CD4+, CD8+, B220+ cells. Put plainly: Flow cytometry of immune cells in organs of LAP-Tg/KO mice. In kind it is in vivo, mouse. On the procedure:
Single-cell suspensions from the bone marrow, spleen, blood, liver, and lung were prepared and analyzed as described in Qu et al., Am J Pathol 2009, 174:944-956; Qu et al., Am J Pathol 2010, 176:2394-2404; Qu et al., J Immunol 2009, 182:1648-1659). Approximately 1×10^6 cells from various organs were blocked with FcR blocking antibodies in flow cytometry buffer (BD Biosciences, San Jose, Calif.) followed by incubation with isotype control or surface specific primary antibodies. Anti-CD11b (M1/70) PE-Cyanine7, anti-Ly6G (RB6-8c5) allophycocyanin-eFluor 780, anti-CD4 fluorescein isothiocyanate, anti-CD8 […], and anti-B220 allophycocyanin were purchased from e-Biosciences (San Diego, Calif.). Cells were analyzed on a LSRII machine (BD Biosciences). Data were analyzed using the BD FACStation software (CellQuest Pro version 2.2.1, BD Bio-sciences). The total gated number of positive cells (approximately 30,000 events) was calculated as the percentage of total gated viable cells. Quadrants were assigned using isotype control monoclonal antibody.

The next assay has as its system B16 melanoma cells. Description: B16 melanoma metastasis in LAP-Tg/KO mice. The conditions noted are these: hepatocyte-specific expression in lal−/− mice; 5×10^5 cells i.v., two weeks. In kind it is in vivo, mouse. The text has this:
LAP-tTA/(TetO)7-CMV-hLAL; lal^−/− (LAP-Tg/KO) triple mice of the FVB/N background was established by cross-breeding of LAP-tTA transgenic mice (Jackson's Laboratory, Bar Harbor, Me.) with a previously generated (tetO)7-CMV-hLAL transgenic mice into lal^−/− mice. This triple transgenic mouse model was hepatocyte-specific Tet-off expression of wild-type hLAL in lal^−/− mice under the control of the LAP. All scientific protocols that involved the use of animals were approved by the Institutional Animal Care and Use Committee of Indiana University School of Medicine and followed guidelines established by the Panel on Euthanasia of the American Veterinary Medical Association. Animals were housed in a secured animal facility at Indiana University School of Medicine.
Tissues from the liver, intestine, and lung were collected after mice were anesthetized. All tissues were washed with phosphate-buffered saline and dehydrated by a series of increasing ethanol concentrations, followed by paraffin embedding. Sections were stained with anti-Ki67 antibody, anti-LAL antibody, and anti-F4/80 antibody by the histologic core.
For experimental metastasis, 5×10^5 B16 melanoma cells in 200 μL of phosphate-buffered saline were injected into the mice via tail vein. Two weeks after the injection, the mice were sacrificed, and the livers and lungs were harvested for examination of metastasis.

A further assay has as its system bone marrow cells. Description: Transwell assay of bone marrow cell transendothelial migration towards BALF. In kind it is cell-based, mouse. To be noted: BALF from doxycycline-treated CCSP-Tg/KO mice in lower chamber; 4 hours. On the procedure: Transwell assay was used to determine cell transendothelial migration. ECs were added to the upper chamber of 24-well 8.0-μm-pore Transwell plates (Corning, Corning, N.Y., USA), and incubated at 37° C., 5% CO2 for 48 hours to form an EC monolayer. The supernatant was then removed, and CELLTRACKER™ Green 5-Chloromethylfluorescein Diacetate (CMFDA) (Invitrogen, Grand Island, N.Y., USA)-labeled bone marrow cells (1×10^4 cells in 200 μL media) were added to the upper well. After 4 hours, transendothelial migration of bone marrow cells was determined by counting their numbers in the lower chamber under 5 random microscopic fields.

Where [4] appears, read: doxycycline-untreated LAP-Tg/KO triple mice (hLAL on).

As for 9-hydroxyoctadecadienoic acid [9-HODE], the mitochondrial membrane potential entry in the assay on Ly6G+CD11b+ cells [1] is recorded as “partially recovered”. In addition, in the assay with Ly6G+CD11b+ cells [2], the ROS production entry is recorded as “suppressed the increased ROS production”.

B1: hLAL: human lysosomal acid lipase expressed from a doxycycline-controlled tissue-specific transgene in lal−/− mice; never administered as a protein (protein)
chain: GPKPVVFLQHGLLADSSNWVTNLANSSLGFILADAGFDVWMGNSRGNTWSRKHKTLSVSQDEFWAFSYDEMAKYDLPASINFILNKTGQEQVYYVGHSQGTTIGFIAFSQIPELAKRIKMFFALGPVASVAFCTSPMAKLGRLPDHLIKDLFGDKEFLPQSAFLKWLGTHVCTHVILKELCGNLCFLLCGFNERNLNMSRVDVYTTHSPAGTSVQNMLHWSQAVKFQKFQAFDWGSSAKNYFHYNQSYPPTYNVKDMLVPTAVWSGGHDWLADVYDVNILLTQITNLVFHESIPEWEHLDFIWGLDAPWRLYNKIINLMRKYQ
modifications: left off: small tags and cut ends
notes: human lysosomal acid lipase expressed from a doxycycline-controlled tissue-specific transgene in lal−/− mice; never administered as a protein
On to B1, for which, in assay [3] (setting [4]), the “CD11b+Ly6G+ cell expansion in blood, spleen, lung, bone marrow” value was “reduction of CD11b^+Ly6G^+ cell expansion was also observed in the blood, spleen, and lung, but not in the bone marrow”; the “percentage and total number of CD11b+Ly6G+ cells in the liver” value is on record as “decreased to the levels of wild-type mice”. Besides, in assay [3] (hepatocyte-specific expression, LAP-Tg/KO triple mice), the “CD4+ T cells in blood, lung and spleen” value is recorded as “increased CD4^+ T cells”. In the assay with B16 melanoma cells, the “B16 melanoma cell metastasis in liver and lung” value is “reduced B16 melanoma cell metastasis”. Moreover, the “bone marrow cell transendothelial migration” value with bone marrow cells is listed as “decreased bone marrow cell transendothelial migration”.
